Here are results for 9 proteins from US20250027068.

The chains are these.
B1: PRT-365 (protein)
chain: MSQTEDSESLQRLRDIEDFQAEKKKQNVVYTKWLDGVDVKDHDFRKIVDGNEAYYATPLLNGRGFYDINKDFNRDSDKCAAAVAANMFHYWLDRNRDNVDRFLRQNPEKHGIIELPDGQLKLSDFLNTYESDDGYRDKSKLFDFISENFNGPVWTDKLLDNYINGYAYNYKYGRLIEDPTKNTSKINFFKEVFNEKILTNNHSIRNQNELSVLLSEALYTGKAIGLSYGPAGTRHSLGHIISVWGADLDADGNVVAIYVTDSDDKKLTIGDERVGLKRYKISTDDEGRLRLTAYEETHNTGGQIRGLWTLDTGKQAWADYFDKTEQTGTDQAEQ
B2: PRT-372 (protein)
chain: MSQTEDSESLQRLRDIEDFQAEKKKQNVVYTKWLDGVDVKDHDFRKIVDGNSAYYATPLLNGRGFYDINKDFNRDNDKCAAAVAANMFHYWLDRNRDNVDRFLRQNPEKHGIIELPDGQLKLSDFLNTYESDDGYRDKSKLFDFISENFNGPVWTDKLLDNYINGYAYNSKYGRTIEDSTKNTSKINFFKEVFNEKILTNNHSIRNQNEFSVLLIEALYTGKAIGLSYGPAGLRHGLGHIISVWGADLDADGNVVAIYVTDSDDKKLTIGDERVGLKRYKISTDDEGRLRLTAYEETHNTGGQIRGLWTLDTGKQAWADYFDKTEQTGTDQAEQ
B3: PRT-446 (protein)
chain: MVTSVWTKGVTPPTDFIKGEDVFHAPYKAGQGWYDITKTFNGKDDLLCGAATAGNMLHWWFDQNKDQIEAYLKEHPEKQKINFNGEQMFDVKEAIDTKDDQTNSKLFEYFKEKAFPYLSTKHLGVFPDHVLDMFINGYRLSLTNHGPTPVKEGSKDPRGGIFDAVFTRGDQSKLLTSRHDFKEKTLKEISDLIKQELTEGKALALSHTYANVRINHVINLWGADFDSNGNLEAIYVTDSDSNASIGMKKYFVGVNSAGKVAISAKEIEDDNIGAQVLGLFTLSTGQDIWNQTNLEHHHHHH
B4: PRT-458 (protein)
chain: MVTSVWTKGVTPPTDFIKGEDVFHAPYKAGQGWYDITKTFNGKDDLLCGAATAGNMLHWWFDQNKDQIERYLKEHPEKQKINFNGEQMFDVKEAIDTKDSQTDSKLFEYFKEKAFPYLSTKHLGVFPDHVLDMFINGYRLSLTNHGPTPVKEGSKDPRGGIFDAVFTRGDQSKLLTSRHDFKEKTLKEISDLIKQELTEGKALGLSHTYANVRINHVINLWGADFDSEGNLKAIYVTDSDSNASIGMKKYFVGVNSAGKVAISAKEIKEDNIGAQVLGLFTLSTGQDIWNQTNLEHHHHHH
B5: PRT-491 (protein)
chain: MVTSVWTKGVTPPTDFIYGEDVLHAPYKAGQGWYDITKTFNGKDNLLCGAATAGNMLHWWFDQNKEQIENYLKKHPEKQKIIFNNQELFDLKAAIDTKDSQLDSKLFEYFKEKAFPYLSTKHLGVFPDHVIDMFINGYRLSLTNHGPTPVKRGSKDKRGGIFDAVFTRGVQSKLLTNRHDLKNKTLKEISDLIKQELTEGKALGISHTYANVRINHVINLWGADFDAEGNLEAIYVTDSDTNASIGMKKYFVGVNSNGKVAISAKEIEEDNIGAQVLGLFTLSTGQDIWNQTNLEHHHHHH
B6: PRT-480 (protein)
chain: MITSVWTKGVTPPTDFIYGEDVLHAPYKAGQGWYDITKAFDGGDDLLCGAATAGNMLHWWFDQNKEQIENYLKKHPEKQKINFNGEQMFDVKEAIDTKDSQTNSELFNYFKEKAFPYLSTKHLGVFPDHVIDMFINGYRLSLTNHGPTPVKRGSKDPRGGIFDAVFTRGDQSKLLTNRHDLKNKTLNEISQLIKQELTEGKALGISHTYANVRINHVINLWGADFDAEGNLEAIYVTDSDSNASIGMKKYFVGVNSNGKVAISAKEIEEDNIGAQVLGLFTLSTGQDIWNQTNLEHHHHHH
B7: PRT-456 (protein)
chain: MITSVWTKGVTPPTDFIKGEDVFHAPYKAGQGWYDITKAFDGGDDLLCGAATAGNMLHWWFDQNKDQIEAYLKEHPEKQKINFNGEQMFDVKEAIDTKDDQTNSELFNYFKEKAFPYLSTKHLGVFPDHVLDMFINGYRLSLTNHGPTPVKEGSKDPRGGIFDAVFTRGDQSKLLTSRHDLKNKTLNEISQLIKQELTEGKALALSHTYANVRINHVINLWGADFDAEGNLEAIYVTDSDSNASIGMKKYFVGVNSAGKVAISAKEIEDDNIGAQVLGLFTLSTGQDIWNQTNLEHHHHHH
B8: PRT-468 (protein)
chain: MITSVWTKGVTPPTDFIKGEDVFHAPYKAGQGWYDITKAFDGGDDLLCGAATAGNMLHWWFDQNKDQIERYLKEHPEKQKINFNGEQMFDVKEAIDTKDSQTNSELFNYFKEKAFPYLSTKHLGVFPDHVLDMFINGYRLSLTNHGPTPVKEGSKDPRGGIFDAVFTRGDQSKLLTSRHDLKNKTLNEISQLIKQELTEGKALGLSHTYANVRINHVINLWGADFDAEGNLEAIYVTDSDSNASIGMKKYFVGVNSAGKVAISAKEIKEDNIGAQVLGLFTLSTGQDIWNQTNLEHHHHHH
B9: PRT-512 (protein)
chain: MITSVWTKGVTPPAKFTQGEDVFHAPYVANQGWYDITKAFDGGDDLLCGAATAGNMLHWWFDQNKEEIEAYLKKHPEKQKIMFGDQELLDVRKVINTKDSQTNSALFNYFKDKAFPNLSARRLGVMPDLVLDMFINGYYLNVYKTQTTDVNRTYQTKDRRGGIFDAVFTRGDQSKLLTERHDLKNKTLKEISDLIKQELTEGKALGLSHTYANVRINHVINLWGADFDSNGNLEAIYVTDSDSNASIGMKKYFVGVNSAGKVAISAKEIKEDNIGAQVLGLFTLSTGQDIWNQTNLEHHHHHH

The series deals with pooled human IgG (human IgG1,2,3 and 4).
B1: the Enzyme Activity Endpoint Assay (purified): Fab′2 came to 735 ng/µL, the Enzyme Activity Endpoint Assay (purified): Fc was found to be 385 ng/µL, the Enzyme Activity Endpoint Assay (purified): IgG came to 0 ng/µL and the Enzyme Activity Endpoint Assay (purified): scIgG was 312 ng/µL.

In turn, B2 had an Enzyme Activity Endpoint Assay: Fab′2 of 0 ng/µL, an Enzyme Activity Endpoint Assay: Fc of 218 ng/µL, an Enzyme Activity Endpoint Assay: IgG of 122 ng/µL and an Enzyme Activity Endpoint Assay: scIgG of 560 ng/µL.

Turning to B3, the Enzyme Activity Endpoint Assay: Fab′2 is 1130 ng/µL, the Enzyme Activity Endpoint Assay: Fc is 427 ng/µL, the Enzyme Activity Endpoint Assay: IgG was found to be 0 ng/µL and the Enzyme Activity Endpoint Assay: scIgG was determined as 0 ng/µL.

B4 yielded an Enzyme Activity Endpoint Assay: Fab′2 of 598 ng/µL, an Enzyme Activity Endpoint Assay: Fc of 224 ng/µL, an Enzyme Activity Endpoint Assay: IgG of 112 ng/µL and an Enzyme Activity Endpoint Assay: scIgG of 226 ng/µL.

B5 registered an Enzyme Activity Endpoint Assay: Fab′2 of 769 ng/µL, an Enzyme Activity Endpoint Assay: Fc of 260 ng/µL, an Enzyme Activity Endpoint Assay: IgG of 140 ng/µL and an Enzyme Activity Endpoint Assay: scIgG of 331 ng/µL.

As for B6, the Enzyme Activity Endpoint Assay: Fab′2 was found to be 846 ng/µL, the Enzyme Activity Endpoint Assay: Fc worked out at 325 ng/µL, the Enzyme Activity Endpoint Assay: IgG was found to be 0 ng/µL and the Enzyme Activity Endpoint Assay: scIgG amounted to 0 ng/µL.

B7 displayed an Enzyme Activity Endpoint Assay: Fab′2 of 1170 ng/µL, an Enzyme Activity Endpoint Assay: Fc of 497 ng/µL, an Enzyme Activity Endpoint Assay: IgG of 0 ng/µL and an Enzyme Activity Endpoint Assay: scIgG of 0 ng/µL.

B8 showed an Enzyme Activity Endpoint Assay: Fab′2 of 957 ng/µL, an Enzyme Activity Endpoint Assay: Fc of 385 ng/µL, an Enzyme Activity Endpoint Assay: IgG of 115 ng/µL and an Enzyme Activity Endpoint Assay: scIgG of 66 ng/µL.

The protein B9 registered an Enzyme Activity Endpoint Assay: Fab′2 of 884 ng/µL, an Enzyme Activity Endpoint Assay: Fc of 372 ng/µL, an Enzyme Activity Endpoint Assay: IgG of 31 ng/µL and an Enzyme Activity Endpoint Assay: scIgG of 0 ng/µL.
